Assay results reported in the RNAGym collection of RNA variant scans (doi:10.1093/molbev/msab373).

B1: Azoarcus group I ribozyme (parent)
chain: GUGCCUUGCGCCGGGAAACCACGCAAGGGAUGGUGUCAAAUUCGGCGAAACCUAAGCGCCCGCCCGGGCGUAUGGCAACGCCGAGCCAAGCUUCGGCGCCUGCGCCGAUGAAGGUGUAGAGACUAGACGGCACCCACCUAAGGCAAACGCUAUGGUGAAGGCAUAGUCCAGGGAGUGGCGAAAGUCACACAAACCGG

Variants of: B1
Experiment: reverse-splicing fitness (ratio to wild type); higher = more active; in vitro selection; Mg2+ level not given
Outline: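 An in vitro group I ribozyme library with randomized positions was T7-transcribed and gel-purified. In triplicate, 10 pmol RNA in EPPS pH 7.5 was reacted with 50 pmoles of a 30-nt RNA substrate for 1 h at 37 °C across several added MgCl2 levels (1–48 mM), then stopped with EDTA. Products were reverse transcribed from a substrate-complementary primer, PCR-amplified and sequenced (HiSeq 4000). Fitness is a variant's read proportion after selection over that before, normalised to wild type.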

Variant | reverse-splicing fitness
GUGCCUUGCGCCGGGAAACCACGCAAGGGAUGGUGUCAAAUUCGGCGAAACCUAAGCGCCCGCCCGGGCGUAUGGCAACGCAGAGCCAAGCUUCGGCGCCUGCGCCGAUGAAGGUGUAGAGACUAGACGGCACCCACCUAAGGCCAACGGUAUGGUGAAGGCAUAGUCGAGGGAGCGGCGAAAGUCACACAAACCGG [C82A A145C C150G C169G U176C] | 0.0067
GUGCCUUGCGCCGGGAAACCACGCAAGGGAUGGUGUCAAAUUCGGCGAAACCUAAGCGCCCGCCCGGGCGUAUGGCAACGCAGAGCCAAGCUUCGGCGCCUGCGCCGAUGAAGGUGUAGUGACUAGACGGCACCCACCUAAGGCAAACGCUAUGGUGAAGGCAUAGUCUAGGGAGGGGCGAAAGUCACACAAACCGG [C82A A120U C169U U176G] | 0.00156
GUGCCUUGCGCCGGGAAACCACGCAAGGGAUGGUGUCAAAUUCGGCGAAACCUAAGCGCCCGCCCGGGCGUAUGGCAACGCAGAGCCAAGCUUCGGCGCCUGCGCCGAUGAAGGUGUAGAGACUAGACGGCACCCACCUAAGGCCAACGAUAUGGUGAAGGCAUAGUCAAGGGAGCGGCGAAAGUCACACAAACCGG [C82A A145C C150A C169A U176C] | 0.00566
GUGCCUUGCGCCGGGAAACCACGCAAGGGAUGGUGUCAAAUUCGGCGAAACCUAAGCGCCCGCCCGGGCGUAUGGCAACGCAGAGCCAAGCUUCGGCGCCUGCGCCGAUGAAGGUGUAGAGACUAGACGGCACCCACCUAAGGCCAACGAUAUGGUGAAGGCAUAGUCAAGGGAGAGGCGAAAGUCACACAAACCGG [C82A A145C C150A C169A U176A] | 0.0113
GUGCCUUGCGCCGGGAAACCACGCAAGGGAUGGUGUCAAAUUCGGCGAAACCUAAGCGCCCGCCCGGGCGUAUGGCAACGCAGAGCCAAGCUUCGGCGCCUGCGCCGAUGAAGGUGUAGAGACUAGACGGCACCCACCUAAGGCCAACGAUAUGGUGAAGGCAUAGUCAAGGGAGGGGCGAAAGUCACACAAACCGG [C82A A145C C150A C169A U176G] | 0.00593
GUGCCUUGCGCCGGGAAACCACGCAAGGGAUGGUGUCAAAUUCGGCGAAACCUAAGCGCCCGCCCGGGCGUAUGGCAACGCAGAGCCAAGCUUCGGCGCCUGCGCCGAUGAAGGUGUAGAGACUAGACGGCACCCACCUAAGGCCAACGGUAUGGUGAAGGCAUAGUCAAGGGAGGGGCGAAAGUCACACAAACCGG [C82A A145C C150G C169A U176G] | 0.00669
GUGCCUUGCGCCGGGAAACCACGCAAGGGAUGGUGUCAAAUUCGGCGAAACCUAAGCGCCCGCCCGGGCGUAUGGCAACGCAGAGCCAAGCUUCGGCGCCUGCGCCGAUGAAGGUGUAGAGACUAGACGGCACCCACCUAAGGCCAACGGUAUGGUGAAGGCAUAGUCAAGGGAGCGGCGAAAGUCACACAAACCGG [C82A A145C C150G C169A U176C] | 0.00619
GUGCCUUGCGCCGGGAAACCACGCAAGGGAUGGUGUCAAAUUCGGCGAAACCUAAGCGCCCGCCCGGGCGUAUGGCAACGCAGAGCCAAGCUUCGGCGCCUGCGCCGAUGAAGGUGUAGAGACUAGACGGCACCCACCUAAGGCCAACGGUAUGGUGAAGGCAUAGUCAAGGGAGAGGCGAAAGUCACACAAACCGG [C82A A145C C150G C169A U176A] | 0.00836
GUGCCUUGCGCCGGGAAACCACGCAAGGGAUGGUGUCAAAUUCGGCGAAACCUAAGCGCCCGCCCGGGCGUAUGGCAACGCAGAGCCAAGCUUCGGCGCCUGCGCCGAUGAAGGUGUAGAGACUAGACGGCACCCACCUAAGGCCAACGAUAUGGUGAAGGCAUAGUCAAGGGAGUGGCGAAAGUCACACAAACCGG [C82A A145C C150A C169A] | 0.00702
GUGCCUUGCGCCGGGAAACCACGCAAGGGAUGGUGUCAAAUUCGGCGAAACCUAAGCGCCCGCCCGGGCGUAUGGCAACGCAGAGCCAAGCUUCGGCGCCUGCGCCGAUGAAGGUGUAGAGACUAGACGGCACCCACCUAAGGCCAACGAUAUGGUGAAGGCAUAGUCUAGGGAGUGGCGAAAGUCACACAAACCGG [C82A A145C C150A C169U] | 0.00913
GUGCCUUGCGCCGGGAAACCACGCAAGGGAUGGUGUCAAAUUCGGCGAAACCUAAGCGCCCGCCCGGGCGUAUGGCAACGCAGAGCCAAGCUUCGGCGCCUGCGCCGAUGAAGGUGUAGAGACUAGACGGCACCCACCUAAGGCCAACGAUAUGGUGAAGGCAUAGUCGAGGGAGUGGCGAAAGUCACACAAACCGG [C82A A145C C150A C169G] | 0.00755
GUGCCUUGCGCCGGGAAACCACGCAAGGGAUGGUGUCAAAUUCGGCGAAACCUAAGCGCCCGCCCGGGCGUAUGGCAACGCAGAGCCAAGCUUCGGCGCCUGCGCCGAUGAAGGUGUAGAGACUAGACGGCACCCACCUAAGGCCAACGCUAUGGUGAAGGCAUAGUCCAGGGAGUGGCGAAAGUCACACAAACCGG [C82A A145C] | 0.586
GUGCCUUGCGCCGGGAAACCACGCAAGGGAUGGUGUCAAAUUCGGCGAAACCUAAGCGCCCGCCCGGGCGUAUGGCAACGCAGAGCCAAGCUUCGGCGCCUGCGCCGAUGAAGGUGUAGAGACUAGACGGCACCCACCUAAGGCCAACGAUAUGGUGAAGGCAUAGUCUAGGGAGGGGCGAAAGUCACACAAACCGG [C82A A145C C150A C169U U176G] | 0.00553
GUGCCUUGCGCCGGGAAACCACGCAAGGGAUGGUGUCAAAUUCGGCGAAACCUAAGCGCCCGCCCGGGCGUAUGGCAACGCAGAGCCAAGCUUCGGCGCCUGCGCCGAUGAAGGUGUAGAGACUAGACGGCACCCACCUAAGGCCAACGAUAUGGUGAAGGCAUAGUCUAGGGAGCGGCGAAAGUCACACAAACCGG [C82A A145C C150A C169U U176C] | 0.00759
GUGCCUUGCGCCGGGAAACCACGCAAGGGAUGGUGUCAAAUUCGGCGAAACCUAAGCGCCCGCCCGGGCGUAUGGCAACGCAGAGCCAAGCUUCGGCGCCUGCGCCGAUGAAGGUGUAGAGACUAGACGGCACCCACCUAAGGCCAACGAUAUGGUGAAGGCAUAGUCUAGGGAGAGGCGAAAGUCACACAAACCGG [C82A A145C C150A C169U U176A] | 0.015
